The results in this text go back to patent US20130253037.

For data set [1], the target named is 6-His-Aurora-A (recombinant, wild type, from Sf9 insect cells).

B1: 6-His-LIMK2 (recombinant, E. coli) (protein)
chain: MSALAGEDVWRCPGCGDHIAPSQIWYRTVNETWHGSCFRCSECQDSLTNWYYEKDGKLYCPKDYWGKFGEFCHGCSLLMTGPFMVAGEFKYHPECFACMSCKVIIEDGDAYALVQHATLYCGKCHNEVVLAPMFERLSTESVQEQLPYSVTLISMPATTEGRRGFSVSVESACSNYATTVQVKEVNRMHISPNNRNAIHPGDRILEINGTPVRTLRVEEVEDAISQTSQTLQLLIEHDPVSQRLDQLRLEARLAPHMQNAGHPHALSTLDTKENLEGTLRRRSLRRSNSISKSPGPSSPKEPLLFSRDISRSESLRCSSSYSQQIFRPCDLIHGEVLGKGFFGQAIKVTHKATGKVMVMKELIRCDEETQKTFLTEVKVMRSLDHPNVLKFIGVLYKDKKLNLLTEYIEGGTLKDFLRSMDPFPWQQKVRFAKGIASGMAYLHSMCIIHRDLNSHNCLIKLDKTVVVADFGLSRLIVEERKRAPMEKATTKKRTLRKNDRKKRYTVVGNPYWMAPEMLNGKSYDETVDIFSFGIVLCEIIGQVYADPDCLPRTLDFGLNVKLFWEKFVPTDCPPAFFPLAAICCRLEPESRPAFSKLEDSFEALSLYLGELGIPLPAELEELDHTVSMQYGLTRDSPP
As to B1, the “in vitro kinase assay, Aurora A (without TPX2) as putative LIMK2 substrate” value in data set [1] is listed as “when LIMK2 was incubated with Aurora A (without TPX2), Aurora A did not get phosphorylated”. In addition, the “in vitro kinase assay, cofilin phosphorylation with [32P] ATP” value with 6-His-cofilin is listed as “LIMK2 efficiently phosphorylated cofilin as expected (lane 3)”.
